In IntAct's records for PubMed 22036564:

Molecular target: efna1_mouse Efna1 (UniProt P52793)
Sequence (P52793 whole entry): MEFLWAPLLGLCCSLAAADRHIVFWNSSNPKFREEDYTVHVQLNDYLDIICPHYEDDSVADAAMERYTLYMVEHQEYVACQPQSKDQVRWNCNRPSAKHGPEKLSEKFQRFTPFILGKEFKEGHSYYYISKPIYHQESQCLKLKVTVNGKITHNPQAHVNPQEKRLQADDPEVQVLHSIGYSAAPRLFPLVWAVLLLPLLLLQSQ

effect of a mutation on the interaction: decreasing interaction
Substance: Ephrin type-A receptor 7 (Homo sapiens), Q15375 T105Q
